Laboratory results as given in US20110274694A1 (JULIUS MAXIMILIANS UNIVERSITAET WUERZBURG, published 2011).

Molecular target: T1, HA-tagged wild-type Erk2 (HA-Erk2, T188T or AA1-358) (mouse, UniProt P63085 1-358)
T1 construct: Mouse cDNA in a CMV expression plasmid, expressed in transfected cells; also called wt-Erk2; not shown: hemagglutinin (HA) tag
Assay: co-precipitation of HA-tagged and Flag-tagged Erk2 after carbachol stimulation
Protocol: HEK293-cells were cultured in the absence or presence of carbachol (100 μM, 6 min) or UK14304 (1 μM, 10 min) before lysis. The inventors prepared ventricular tissue from mouse hearts derived from male 129SvEv (FIG. 1g,h), FVB/N wild-type (WT) or Erk2^T188-transgenic mice (1188T, T188D, T188S, T188A) (FVB/N background) without or after transverse aortic constriction (TAC, see Fig. legends for the duration of TAC) or carbachol-infusion. Control animals were strain-, age- and gender-matched. Lysates of ventricular tissue underwent sonification before immunoblot or immunoprecipitation assays.
FIG. 4 Activation of the entire MAPK-cascade is necessary for interaction of Gβγ with Erk1/2. […] (b) Gene silencing of Raf1 suppressed the carbachol-stimulated interaction of Erk1/2 with Gβ as assessed by co-immunoprecipitation with ERK1/2-specific antibodies (anti-ERK1/2). (c) Inhibition of Mek1/2-activity by PD98059 (50 μM) suppressed the carbachol-stimulated (CCH, 5 min) interaction of HA-Raf1 (Raf1) with Gβ as assessed by co-immunoprecipitation. […] (g, h) Interactions of HA-tagged wild-type Erk2 (AA1-358), truncated Erk2-mutants (AA1-318; AA22-358; AA22-318) and dimerization-deficient Erk2^Δ174-177 with Gβγ as assessed by co-immunoprecipition (g) and carbachol-stimulated inositol phosphate signaling (h) in HEK293-cells. […]

- binding result: no binding
B1: Flag-Erk2^Δ174-177 (enzyme)
chain: MAAAAAAGPEMVRGQVFDVGPRYTNLSYIGEGAYGMVCSAYDNLNKVRVAIKKISPFEHQTYCQRTLREIKILLRFRHENIIGINDIIRAPTIEQMKDVYIVQDLMETDLYKLLKTQHLSNDHICYFLYQILRGLKYIHSANVLHRDLKPSNLLLNTTCDLKICDFGLARVADHTGFLTEYVATRWYRAPEIMLNSKGYTKSIDIWSVGCILAEMLSNRPIFPGKHYLDQLNHILGILGSPSQEDLNCIINLKARNYLLSLPHKNKVPWNRLFPNADSKALDLLDKMLTFNPHKRIEVEQALAHPYLEQYYDPSDEPIAEAPFKFDMELDDLPKEKLKELIFEETARFQPGYRS
notes: also called D174-177; dimerization-deficient Erk2^Δ174-177-mutant; not shown: Flag tag
